In publication PMC2699158:

Molecular target: taxol-stabilized microtubules
Test: co-sedimentation

Kd: < 0.3 µM
Substance: 6×His-CLASP2(340–650), wild type (from UniProt O75122-3 340-650) (domain or fragment)
